IntAct's records for PubMed 19197237

Biological target: pex14_human PEX14 (UniProt O75381)
Sequence of UniProt O75381 (O75381 whole entry): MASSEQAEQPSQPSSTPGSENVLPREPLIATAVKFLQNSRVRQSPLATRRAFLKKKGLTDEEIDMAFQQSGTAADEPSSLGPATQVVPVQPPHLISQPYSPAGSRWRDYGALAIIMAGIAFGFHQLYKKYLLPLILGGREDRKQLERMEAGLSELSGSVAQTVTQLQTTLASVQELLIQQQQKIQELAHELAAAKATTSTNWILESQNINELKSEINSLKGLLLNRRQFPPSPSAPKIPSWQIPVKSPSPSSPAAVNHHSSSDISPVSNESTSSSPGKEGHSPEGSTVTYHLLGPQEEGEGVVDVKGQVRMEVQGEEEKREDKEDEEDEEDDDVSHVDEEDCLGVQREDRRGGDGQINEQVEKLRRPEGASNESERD

With “Peroxisomal targeting signal 1 receptor (Homo sapiens) (from UniProt P50542) E121D” as the substance, how does the “effect of a mutation on the interaction” value read?
Its value is “disrupting interaction”.
